One data set concerns the target T1, Prp22p (Saccharomyces cerevisiae, UniProt P24384).
T1 construct: gene PRP22; recombinant from E. coli BL21 RIL, purified as previously described
T1 sequence (P24384 1-1145): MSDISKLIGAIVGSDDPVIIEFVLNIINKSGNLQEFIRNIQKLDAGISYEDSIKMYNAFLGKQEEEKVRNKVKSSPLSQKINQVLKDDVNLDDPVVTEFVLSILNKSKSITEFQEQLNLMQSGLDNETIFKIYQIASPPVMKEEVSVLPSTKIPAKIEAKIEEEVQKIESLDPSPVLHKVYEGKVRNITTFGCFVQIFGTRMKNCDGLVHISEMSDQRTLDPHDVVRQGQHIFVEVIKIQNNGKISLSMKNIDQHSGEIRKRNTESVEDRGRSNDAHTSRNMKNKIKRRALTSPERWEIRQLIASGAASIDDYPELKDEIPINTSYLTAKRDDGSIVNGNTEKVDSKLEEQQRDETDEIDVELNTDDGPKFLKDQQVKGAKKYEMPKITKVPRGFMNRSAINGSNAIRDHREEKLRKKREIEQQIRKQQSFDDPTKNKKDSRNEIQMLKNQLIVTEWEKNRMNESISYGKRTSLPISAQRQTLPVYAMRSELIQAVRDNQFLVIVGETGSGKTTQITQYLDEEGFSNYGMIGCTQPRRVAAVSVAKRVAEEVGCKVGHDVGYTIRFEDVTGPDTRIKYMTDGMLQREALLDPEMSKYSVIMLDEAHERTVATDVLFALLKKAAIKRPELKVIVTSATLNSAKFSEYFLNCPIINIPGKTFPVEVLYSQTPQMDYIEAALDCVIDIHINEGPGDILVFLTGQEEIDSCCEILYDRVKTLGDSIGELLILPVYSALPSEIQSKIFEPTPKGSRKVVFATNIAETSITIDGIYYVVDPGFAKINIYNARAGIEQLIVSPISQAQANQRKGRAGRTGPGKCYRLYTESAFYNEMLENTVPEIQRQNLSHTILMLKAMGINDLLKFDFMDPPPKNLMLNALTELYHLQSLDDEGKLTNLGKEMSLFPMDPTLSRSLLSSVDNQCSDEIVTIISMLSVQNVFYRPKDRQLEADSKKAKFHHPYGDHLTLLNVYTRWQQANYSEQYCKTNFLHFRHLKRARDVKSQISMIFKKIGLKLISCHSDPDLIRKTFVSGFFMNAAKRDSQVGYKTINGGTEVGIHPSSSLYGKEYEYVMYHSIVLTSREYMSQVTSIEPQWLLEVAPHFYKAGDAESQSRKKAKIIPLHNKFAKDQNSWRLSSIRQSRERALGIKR
As to the kind of experiment: ATPase assay, released Pi. Type of data set: biochemical. Conditions: 1 mM ATP, 50 ng/μl total yeast RNA, 20 mM Tris-HCl pH 7.5, 75 mM KCl, 1 mM MgSO4, 30°C.

A further data set concerns the target T2, Ded1p (Saccharomyces cerevisiae, UniProt P06634).
T2 construct: gene DED1; recombinant from E. coli BL21 RIL, purified as previously described
As to the kind of experiment: ATPase assay, released Pi. It is filed as biochemical. Conditions: 5 nM enzyme, 1 mM ATP, 50 ng/μl total yeast RNA, 20 mM Tris-HCl pH 7.5, 50 mM KAc, 1 mM MgOAc, 30°C.

Data set [1] has as its target T3, recombinant Prp16p (wild type) (budding yeast, UniProt P15938 1-1071).
T3 construct: Prp16p, budding yeast; also called WT Prp16p; source: E. coli BL21 RIL, purified (NiNTA-agarose)
T3 sequence (looked up): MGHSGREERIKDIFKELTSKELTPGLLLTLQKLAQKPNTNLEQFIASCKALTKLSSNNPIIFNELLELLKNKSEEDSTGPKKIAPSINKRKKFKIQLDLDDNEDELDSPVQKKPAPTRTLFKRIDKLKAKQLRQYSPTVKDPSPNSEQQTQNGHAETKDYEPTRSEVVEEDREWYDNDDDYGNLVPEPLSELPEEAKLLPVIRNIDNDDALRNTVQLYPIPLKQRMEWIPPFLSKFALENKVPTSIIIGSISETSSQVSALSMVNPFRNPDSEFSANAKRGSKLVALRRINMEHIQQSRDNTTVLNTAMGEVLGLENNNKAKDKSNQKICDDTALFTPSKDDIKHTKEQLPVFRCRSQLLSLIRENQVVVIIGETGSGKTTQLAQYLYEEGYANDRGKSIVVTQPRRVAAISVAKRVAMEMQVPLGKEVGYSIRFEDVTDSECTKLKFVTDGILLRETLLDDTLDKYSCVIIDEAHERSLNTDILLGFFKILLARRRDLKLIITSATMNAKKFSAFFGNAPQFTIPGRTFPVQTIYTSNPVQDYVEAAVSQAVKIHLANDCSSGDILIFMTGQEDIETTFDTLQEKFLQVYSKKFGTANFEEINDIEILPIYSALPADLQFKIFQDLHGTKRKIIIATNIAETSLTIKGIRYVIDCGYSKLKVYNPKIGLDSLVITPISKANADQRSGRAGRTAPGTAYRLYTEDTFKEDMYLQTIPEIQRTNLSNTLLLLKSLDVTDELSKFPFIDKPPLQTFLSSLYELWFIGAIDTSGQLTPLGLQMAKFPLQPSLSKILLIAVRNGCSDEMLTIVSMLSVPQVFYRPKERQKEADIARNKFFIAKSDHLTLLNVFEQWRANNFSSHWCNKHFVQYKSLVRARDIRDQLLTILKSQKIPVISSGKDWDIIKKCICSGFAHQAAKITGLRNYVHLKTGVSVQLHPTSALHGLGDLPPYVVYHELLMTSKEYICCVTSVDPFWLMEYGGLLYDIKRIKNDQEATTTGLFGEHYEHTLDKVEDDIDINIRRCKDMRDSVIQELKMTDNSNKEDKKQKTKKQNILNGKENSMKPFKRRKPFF
As to the kind of experiment: native gel or EMSA; apparent; Prp16p (300 nM) with 2-nM 32P-labelled 44-nt ssRNA and increasing amounts of Sec63-2p or Sec63-2 R1899Gp; loss of the Prp16p-RNA complex; buffer of the Prp16p ATPase assay without ATP. Conditions: both partners purified. On the technique in general: Mobility shift assays separate free from complexed probe on a gel.

For data set [2], the target named is T3, recombinant Prp16p (wild type). As to the kind of experiment: cell-based or functional assay.
The target of data set [3] is Brr2 H2-Sec63-2p R1899G, Gal4AD-prey fusion, P32639. As to the kind of experiment: Y2H interaction assay. The note with it: chain shown with the change; growth on -LWH medium with 3-AT; parent: 50.0.
Substrate in data set [4]: Nc1ncnc2c1ncn2[C@@H]1O[C@H](COP(=O)(O)OP(=O)(O)OP(=O)(O)O)[C@@H](O)[C@H]1O
As to the kind of experiment: ATPase assay, released Pi. The note with it: 10 nM enzyme, 50 ng/μl total yeast RNA, no Sec63-2p, 20 mM Tris-HCl pH 7.5, 75 mM KCl, 1 mM MgSO4, 30°C. It is filed as biochemical, Saccharomyces cerevisiae. The text has this: ATPase assay, released Pi on Prp16p

Data set [5] addresses Brr2 H2-Sec63-2p L1951P, Gal4AD-prey fusion, P32639. As to the kind of experiment: Y2H interaction assay. Conditions: chain shown with the change; growth on -LWH medium with 3-AT; parent: 50.0.
Another data set concerns the target T4, Prp16p (UniProt P15938 1-1071).
T4 sequence: T3 sequence (looked up)
As to the kind of experiment: EMSA; no ATP; 2 nM RNA; EMSA in the Prp16p ATPase assay buffer without ATP (composition, pH and temperature not in the material), 2 nM 5' 32P-labeled RNA. Conditions: protein: recombinant; tags: His (pET22b-PRP16-His); label: 5' 32P; single stranded.

As a reminder, the Km is the substrate concentration at which the rate is half of its maximum. The term kcat denotes the number of substrate molecules converted per active site and unit of time at saturation.

Positions count from the first letter of the chain named. In names and notes the source's numbering stands.

Sequence of Brr2 H2-Sec63-2p L1951P, Gal4AD-prey fusion, P32639 (P32639 whole entry L1951P, the tested form may be a part): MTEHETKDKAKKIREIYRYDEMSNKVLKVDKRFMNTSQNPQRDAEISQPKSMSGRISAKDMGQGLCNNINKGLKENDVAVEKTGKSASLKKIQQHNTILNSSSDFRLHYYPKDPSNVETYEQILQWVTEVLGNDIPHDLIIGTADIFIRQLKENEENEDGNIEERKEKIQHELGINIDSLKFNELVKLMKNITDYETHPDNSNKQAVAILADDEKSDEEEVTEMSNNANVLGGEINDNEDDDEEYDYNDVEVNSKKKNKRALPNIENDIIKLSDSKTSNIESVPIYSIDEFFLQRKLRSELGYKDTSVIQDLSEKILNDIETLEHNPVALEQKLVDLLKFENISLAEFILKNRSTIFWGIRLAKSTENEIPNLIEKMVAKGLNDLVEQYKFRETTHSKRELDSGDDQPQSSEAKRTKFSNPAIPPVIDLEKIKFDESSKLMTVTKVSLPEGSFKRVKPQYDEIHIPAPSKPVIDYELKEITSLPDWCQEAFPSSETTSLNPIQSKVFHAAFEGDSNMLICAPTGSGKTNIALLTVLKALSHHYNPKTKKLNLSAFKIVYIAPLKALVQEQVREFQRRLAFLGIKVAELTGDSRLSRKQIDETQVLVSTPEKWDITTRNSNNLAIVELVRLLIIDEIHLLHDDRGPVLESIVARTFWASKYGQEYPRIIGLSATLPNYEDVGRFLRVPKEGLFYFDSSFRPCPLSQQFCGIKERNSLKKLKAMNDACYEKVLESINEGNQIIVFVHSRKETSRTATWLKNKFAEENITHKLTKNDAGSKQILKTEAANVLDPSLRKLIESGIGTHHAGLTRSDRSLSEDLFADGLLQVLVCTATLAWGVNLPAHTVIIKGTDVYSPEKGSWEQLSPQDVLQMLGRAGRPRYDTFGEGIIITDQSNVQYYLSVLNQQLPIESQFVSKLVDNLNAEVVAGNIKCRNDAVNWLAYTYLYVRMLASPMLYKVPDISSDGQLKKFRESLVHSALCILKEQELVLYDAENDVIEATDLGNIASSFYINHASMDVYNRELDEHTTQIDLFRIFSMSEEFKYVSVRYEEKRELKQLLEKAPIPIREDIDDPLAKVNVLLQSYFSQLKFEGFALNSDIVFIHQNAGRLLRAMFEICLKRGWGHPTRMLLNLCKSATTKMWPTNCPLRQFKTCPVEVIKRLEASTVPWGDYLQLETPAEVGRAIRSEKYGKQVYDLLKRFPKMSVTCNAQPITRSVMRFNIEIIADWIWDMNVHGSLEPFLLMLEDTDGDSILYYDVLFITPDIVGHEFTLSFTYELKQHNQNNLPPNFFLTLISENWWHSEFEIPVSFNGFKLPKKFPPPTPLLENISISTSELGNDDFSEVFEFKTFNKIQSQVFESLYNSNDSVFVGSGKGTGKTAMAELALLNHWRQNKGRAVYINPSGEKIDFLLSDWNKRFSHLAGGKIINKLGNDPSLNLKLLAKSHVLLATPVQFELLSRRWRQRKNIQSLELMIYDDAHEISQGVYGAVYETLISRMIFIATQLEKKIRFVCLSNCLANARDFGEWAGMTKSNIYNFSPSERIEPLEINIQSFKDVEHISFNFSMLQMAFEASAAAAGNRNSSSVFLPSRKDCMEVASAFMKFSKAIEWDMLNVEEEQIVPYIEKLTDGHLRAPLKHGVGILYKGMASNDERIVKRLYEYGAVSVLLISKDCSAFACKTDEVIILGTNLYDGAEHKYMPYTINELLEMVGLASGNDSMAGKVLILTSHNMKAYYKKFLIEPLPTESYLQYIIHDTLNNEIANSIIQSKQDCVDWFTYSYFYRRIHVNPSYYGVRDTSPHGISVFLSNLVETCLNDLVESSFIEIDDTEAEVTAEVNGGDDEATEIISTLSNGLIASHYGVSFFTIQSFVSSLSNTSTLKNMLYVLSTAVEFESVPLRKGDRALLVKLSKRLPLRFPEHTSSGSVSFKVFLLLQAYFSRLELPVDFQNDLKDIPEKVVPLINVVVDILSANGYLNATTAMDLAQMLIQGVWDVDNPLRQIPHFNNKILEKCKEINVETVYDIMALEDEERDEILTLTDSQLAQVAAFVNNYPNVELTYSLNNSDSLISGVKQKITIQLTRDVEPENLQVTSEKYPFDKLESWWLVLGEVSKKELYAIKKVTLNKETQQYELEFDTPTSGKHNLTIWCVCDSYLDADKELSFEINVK
Sequence of Brr2 H2-Sec63-2p R1899G, Gal4AD-prey fusion, P32639 (P32639 whole entry R1899G, the tested form may be a part): as the sequence (P32639 whole entry L1951P, the tested form may be a part) above, with R1899G, P1951L counted along it
T2 sequence (P06634 2-604): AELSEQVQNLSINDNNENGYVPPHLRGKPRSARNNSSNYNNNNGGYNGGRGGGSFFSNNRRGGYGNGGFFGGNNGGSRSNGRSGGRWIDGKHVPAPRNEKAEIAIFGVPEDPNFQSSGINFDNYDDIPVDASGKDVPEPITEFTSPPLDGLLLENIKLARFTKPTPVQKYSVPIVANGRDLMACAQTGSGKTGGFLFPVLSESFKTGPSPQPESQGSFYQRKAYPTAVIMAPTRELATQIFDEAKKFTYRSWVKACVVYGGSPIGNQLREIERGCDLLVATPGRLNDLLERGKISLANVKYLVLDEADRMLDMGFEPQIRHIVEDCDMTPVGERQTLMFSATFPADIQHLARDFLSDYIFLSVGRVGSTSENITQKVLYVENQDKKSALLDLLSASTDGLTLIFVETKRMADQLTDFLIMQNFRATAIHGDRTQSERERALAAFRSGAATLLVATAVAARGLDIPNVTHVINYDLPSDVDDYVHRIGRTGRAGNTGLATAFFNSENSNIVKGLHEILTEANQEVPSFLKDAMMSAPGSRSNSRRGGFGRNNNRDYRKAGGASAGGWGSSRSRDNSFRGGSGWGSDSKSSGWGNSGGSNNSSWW

In the case of `Nc1ncnc2c1ncn2[C@@H]1O[C@H](COP(=O)(O)OP(=O)(O)OP(=O)(O)O)[C@@H](O)[C@H]1O` [ATP], the “ATPase assay, released Pi” value at Prp22p and at Ded1p was “no effect of Sec63-2p on the ATPase activities of Ded1p” in each case.

B1: recombinant Brr2 Sec63-2p (domain or fragment, budding yeast, UniProt P32639 1846-2160, looked up)
chain: TLSNGLIASHYGVSFFTIQSFVSSLSNTSTLKNMLYVLSTAVEFESVPLRKGDRALLVKLSKRLPLRFPEHTSSGSVSFKVFLLLQAYFSRLELPVDFQNDLKDILEKVVPLINVVVDILSANGYLNATTAMDLAQMLIQGVWDVDNPLRQIPHFNNKILEKCKEINVETVYDIMALEDEERDEILTLTDSQLAQVAAFVNNYPNVELTYSLNNSDSLISGVKQKITIQLTRDVEPENLQVTSEKYPFDKLESWWLVLGEVSKKELYAIKKVTLNKETQQYELEFDTPTSGKHNLTIWCVCDSYLDADKELSFEI
notes: Brr2p, budding yeast, carboxy-terminal Sec63-2 domain; detected with anti-His-HRP antibodies; also called WT Sec63-2p; Brr2 Sec63-2p domain; source: E. coli BL21 RIL, purified (Hi-Trap IMAC HP charged with Ni)
On to B1, for which, in data set [1], the “Kd (dissociation constant)” value was determined as 479 ± 2 nM. Besides, the “ATPase activity of Prp16p (10 nM) in vitro with increasing molar excess of Sec63-2p, in presence of 50-ng/μl total yeast RNA” value in data set [2] was found to be 2 fold.

B2: recombinant Brr2 Sec63-2 R1899Gp (domain or fragment, budding yeast, UniProt P32639 1846-2160, looked up)
chain: B1 chain with R54G
notes: Brr2p, budding yeast, carboxy-terminal Sec63-2 domain; also called Sec63-2 R1899G mutant protein; Brr2-R1899G mutant protein; source: E. coli BL21 RIL, purified (Hi-Trap IMAC HP charged with Ni)
As to B2, the “Kd (dissociation constant)” value in data set [1] amounted to 3097 ± 3 nM.

B3: m21; m1 Prp16p:R456K; Prp16p:G691R; Brr2 H2-Sec63-2:R1899G (protein)
chain: T3 sequence (looked up) with R456K, G691R
For B3, in data set [3], the other: maximal [3AT] tolerated was determined as 0 mM.

B4: m21; m1 Prp16p:Q685H; Brr2 H2-Sec63-2:R1899G (protein)
chain: T3 sequence (looked up) with Q685H
With B4, in data set [3], the other: maximal [3AT] tolerated amounted to 100 mM.

B5: Prp16p (Saccharomyces cerevisiae S288C) (protein)
chain: T3 sequence (looked up)
notes: recombinant from E. coli BL21 RIL, NiNTA purified (His-tagged)
As for B5, in data set [4], the Km turned out to be 751 ± 181 µM and the kcat was determined as 183 ± 41 min⁻¹.

B6: m21; m1 Prp16p:D473E; Brr2 H2-Sec63-2:L1951P (protein)
chain: T3 sequence (looked up) with D473E
On to B6, for which, in data set [5], the other: maximal [3AT] tolerated turned out to be 0 µM.

B7: m21; m1 Prp16p:D473E; Brr2 H2-Sec63-2:R1899G (protein)
chain: T3 sequence (looked up) with D473E
With B7, the other: maximal [3AT] tolerated in data set [3] was 10 mM.

B8: m21; m1 Prp16p:Q685H; Brr2 H2-Sec63-2:L1951P (protein)
chain: T3 sequence (looked up) with Q685H
Take B8: the other: maximal [3AT] tolerated in data set [5] amounted to 0 µM.

B9: m21; m1 Prp16p:R686I; Brr2 H2-Sec63-2:L1951P (protein)
chain: T3 sequence (looked up) with R686I
As for B9, in data set [5], the other: maximal [3AT] tolerated is 200 µM.

B10: m21; m1 Prp16p:R686Q; Brr2 H2-Sec63-2:R1899G (protein)
chain: T3 sequence (looked up) with R686Q
As to B10, the other: maximal [3AT] tolerated in data set [3] was determined as 50 mM.

B11: m21; m1 Prp16p:R686I; Brr2 H2-Sec63-2:R1899G (protein)
chain: T3 sequence (looked up) with R686I
B11: the other: maximal [3AT] tolerated in data set [3] amounted to 75 mM.

B12: m21; m1 Prp16p:R456K; Prp16p:G691R; Brr2 H2-Sec63-2:L1951P (protein)
chain: T3 sequence (looked up) with R456K, G691R
As to B12, the other: maximal [3AT] tolerated in data set [5] stood at 0 µM.

B13: m21; m1 Prp16p:R686Q; Brr2 H2-Sec63-2:L1951P (protein)
chain: T3 sequence (looked up) with R686Q
Consider B13, for which the other: maximal [3AT] tolerated in data set [5] turned out to be 200 µM.

With GGGCGAAUUCAAAACAAAACAAAACUAGCACCGUAAAGCAAGCU (ssRNA) [44-nt ssRNA], the binding result with Prp16p was “binds”.

The values above are taken from article PMC4267655, “Brr2p carboxy-terminal Sec63 domain modulates Prp16 splicing RNA helicase” (Nucleic Acids Research, 2014).
